A protein production outcome set (Wang et al. 2014)
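Further: failed if final PepcDB status was selected cloned or expressed and not failed if soluble or beyond.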

Assay: label from the status in PepcDB records
With “MKSKIFSTSLAFAFLLLITTVASAGQEIQITPYGERGLNPAIYDNKIAWLDKYINGSLHLRDLSTGKEIQITEDPWYSYLAVYNDKIVWGPGGQNIYLYNISTNHKTLLSIPESENQGSRDSLTIYGDKIVWRDQSGGYQDIYMYDLSTYNKTRITTNQSTKDPVIYGDKIVWQEDPSFGFGSSYHDIYVYNLSTSNKTRVTTNRSASSPNVYGDRIVYMESNNIYFHNLSTSLETQITFNGSRKDKLAIYGDRIVWQDDRNGNWDVYVYDLSEDKEIQITNDESDQLNPAIYGDKIVWEDYRNDRENMYYCSIYMYDFSAKPTMPFASFSANITSKSGNMPLTVLFTCNSTGGTPTSWYWDFGDGINSKHAQTATHTFKKPGTYDVSLTVTNFAGNSTLKKSNYITVTPQQAPIADFFSPEVYHANTYGGSVPTKTVSFVDNSTGSPTSWLWDFGDGNTSTEQNPTHVYDVEGGYTVNLTVKNVVGSNTTSKYGYVLVGLGDGSVAPEYFSSSVTSGDAPLKVTFHGGTGYANDWTFGDGSRQSVGENQTVEHTYLEPGQYTVSLSEYNVGGTAAITKYHYITVTGLTRPVASFTSEKVSVPMSLTIAFTDTSIGKPTSWYWDFGDGDSSTEQNPTHTYSAAGNYTVSLTASNENSTNSTFRVIDVFKTTGPFAYVISGNNISVIDTATDKVVDTIEIGSGLVGVAVNPTGTKVYVANEGNNTVSVIDTSISKVIATVNGLNSPYAIAITPDGKKAYVTNNSGAVFENGTVYVIDTGTSTVMNTVNVGSVPHGVAVSLDGAKVYVTNYYDISVIDTATNKVTATLNVGQYPDGIAVSPDGTKIYVTNGGSDNVSVIDTETNNVTATLPVGDNPVRVAVTPDGTKLYVTNYKGNTISVINTTTNTVTATIPGDGPYGVSITPDGKKVYVTNLGSDLSGKTVSVIDTAANTVIATVKVGSYPREVAVAPYGK” the protein production was “failed”. For “MKSLSEHVDFSESKTGNSSSESETGQTLIFLLADLAQRQQIDNTLQSFLNESNAEEILLVANIRCADDEVWLRKYCARFPSVNAILNRRAKSATVLEAQGRWLARYRSQVVLSVDCDESGVKILRKVLPFFTPPVAMEMQKSTLSCQPGEQGLTLIIPAHDCDLYLTDCLASALVIESDKTLVVVDDGSLDDTHGVIAGFASQYPEIIDHISICKASGLPAVPRNIGLASVQTDTFGFIDADDWISPGEYTSALYEMQQMSADIATAAGFTRHYPDRTESLLQKCFTIPENEPANVLEGSFFSNIWNRIYARSILLRSGAYFPRTHFSEDFCFSVWSHFYAEKTIQVSVSFYHHRYGRQGSTTDNRAGSGAFSHITEFHRELEMYLADPFMRKALATILRKRMGSFQYTLKLLPPELIQPFKTALQEMLKPLNRYFISDKEPNKRDIATFAALGISDLLYQRPRSKFLGMRNWGRKWLGMYQQLTKRESHENS”, the protein production was “failed”. For “MKSLVKVSLAALALAFAVSAYAAEKELIVATDTAFVPFEFKQGDKYVGFDIDLWDAIAKKLDLKYTLKPMDFSGIIPALQTKNVDLALAGITITDERKKAVDFSDGYYNSGLLVMVKADNNDIKSEADLQGKVLAVKSGTGSVDYAKANIKTKDLRQFPNIDNAYLELGTGRADAVLHDTPNILYFIKTAGNGQFKAVGESIKAQQYGVAFPQGSDLREKVNAALKSLKEDGTYAEIYKKWFGVEPK”, the protein production was “failed”. With “MKTASYAQSFSRAAKEYDAYAYLQQTVARELASWIEGMECESILDLGCGTGALWRALRFKPRFFTGVDLSMEMLDLHPQDPAIRLIQSDFNHPSLYEHSYDLIAASSSLQWSRDLAQSFDLIAKSAQNVAFAIFTSESLWEIHDYVDSHSPIPSKERIESLLKERFAGEFELKRYPLSFPSRVAMLSYLKGSGISGGRRLGFAQSK” the protein production was “failed”. For “MKTDLIYGVEDRPPFKDALFAALQHLLAIFVAIITPPLIIASALKLDVEKTSFLVSMSLFASGVSTFIQCRRIGPIGAKLLCIQGTSFSFIGPIIATGLVGGLPLIFGSCIAAAPIEMVVSRTFKYLRNIITPLVSGIVVLLIGLSLIKVGIVSCGGGYSAMDDGSFGSWENLSIAALVLLSVLFFNRCKNKYLRMSSIVFGLCLGYGLAFALGKVNMSALNVEMLMSFNIPQPFKYGIDFNISSFIAIGLVYLITAIEATGDVTANSMISGLPIEGDSYLKRVSGGVMADGFNSLLAGIFNSFPNSIFAQNNGIIQLTGVASRYVGYYIAAMLVLLGLFPIVGAIFSLMPDPVLGGATLLMFGTVAAAGIRIVSSQEIGRKETLVLAVSLSLGLGVELMPDVLKQAPEAIRSIFSSGITTGGLTAIVANMVIRVK”, the protein production was “not failed”.
